Experimental data reported in the supplement of paper PMC7125110.
± gives the standard error. For some of these results: Fewer inactive variants are shown than the library holds.

B1: glmS ribozyme (parent)
chain: AUAAAAGCGCCAGAACUACAGAAAUGUAGUUGACGAGGAGGAGGUUUAUCGAAUUUUCGGCGGAUGCCUCCAAA

Columns and labels:
Details in all cases: with glucosamine-6-phosphate
[1] = variants of: B1; experiment: kcat; higher = faster cleavage; RNA array
Summary of the method: (§1)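 Barcoded ribozyme variants, transcribed in situ by E. coli RNA polymerase on sequenced MiSeq chips, were followed via a hybridised Cy3 probe at 37 °C. Glucosamine-6-phosphate ranged from 40 μM to 10 mM in HEPES/KCl/Mg(OAc)2 buffer. kobs came from decay fits to per-tile medians, and kcat and KM from weighted Michaelis–Menten fits.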

[2] = variants of: B1; experiment: KM; higher = weaker cofactor use; RNA array
Summary of the method: as §1

[3] = variants of: B1; experiment: self-cleavage kobs at 40 uM GlcN6P; higher = faster cleavage; RNA array
Summary of the method: as §1

[4] = variants of: B1; experiment: self-cleavage kobs at 160 uM GlcN6P; higher = faster cleavage; RNA array
Summary of the method: as §1

[5] = variants of: B1; experiment: self-cleavage kobs at 640 uM GlcN6P; higher = faster cleavage; RNA array
Summary of the method: as §1

[6] = variants of: B1; experiment: self-cleavage kobs at 2500 uM GlcN6P; higher = faster cleavage; RNA array
Summary of the method: as §1

[7] = variants of: B1; experiment: self-cleavage kobs at 10000 uM GlcN6P; higher = faster cleavage; RNA array
Summary of the method: as §1

| Variant | kcat [1] | KM [2] | self-cleavage kobs at 40 uM GlcN6P [3] | self-cleavage kobs at 160 uM GlcN6P [4] | self-cleavage kobs at 640 uM GlcN6P [5] | self-cleavage kobs at 2500 uM GlcN6P [6] | self-cleavage kobs at 10000 uM GlcN6P [7] |
| --- | --- | --- | --- | --- | --- | --- | --- |
| U54G U65G | 0.00368 ± 0.00099 s⁻¹ | 3430 ± 1300 µM | 5.92e-05 ± 6.8e-06 s⁻¹ | 0.00012 ± 2.1e-05 s⁻¹ | 0.000629 ± 9e-05 s⁻¹ | 0.00144 ± 0.00021 s⁻¹ | 0.00282 ± 0.00029 s⁻¹ |
| U57A U69G | 4.58e-05 ± 6.6e-06 s⁻¹ | – | – | 3.35e-05 ± 1.6e-05 s⁻¹ | 5.15e-05 ± 1.3e-05 s⁻¹ | 3.88e-05 ± 1.3e-05 s⁻¹ | – |
| U54G U56A U69G | 5.38e-05 ± 1.1e-05 s⁻¹ | – | 4.11e-05 ± 1.9e-05 s⁻¹ | – | 7.97e-05 ± 1.8e-05 s⁻¹ | 4.21e-05 ± 1.1e-05 s⁻¹ | 6e-05 ± 1.8e-05 s⁻¹ |
| U56G G66U | 0.000858 ± 0.00012 s⁻¹ | 1780 ± 400 µM | 3.12e-05 ± 8.7e-06 s⁻¹ | 6.25e-05 ± 7.4e-06 s⁻¹ | 0.000237 ± 2.4e-05 s⁻¹ | 0.000576 ± 5.7e-05 s⁻¹ | 0.000682 ± 6.4e-05 s⁻¹ |
| U56G G66A | 0.0089 ± 0.0034 s⁻¹ | – | 0.00021 ± 3.4e-05 s⁻¹ | 0.00049 ± 0.00011 s⁻¹ | 0.00136 ± 0.00037 s⁻¹ | 0.00405 ± 0.00078 s⁻¹ | 0.00875 ± 0.0018 s⁻¹ |
| U56G G66C | 0.000388 ± 2.1e-05 s⁻¹ | 1800 ± 300 µM | – | – | 9.51e-05 ± 3.1e-05 s⁻¹ | 0.000244 ± 4.9e-05 s⁻¹ | 0.000325 ± 3.9e-05 s⁻¹ |
| U54A G66U | 0.00199 ± 0.00037 s⁻¹ | 1460 ± 440 µM | 8.58e-05 ± 1.9e-05 s⁻¹ | 0.000194 ± 3.3e-05 s⁻¹ | 0.000521 ± 8e-05 s⁻¹ | 0.00141 ± 0.00024 s⁻¹ | 0.00174 ± 0.00024 s⁻¹ |
| U54A G66C | 0.000876 ± 0.00013 s⁻¹ | 1230 ± 390 µM | – | 0.00012 ± 2.7e-05 s⁻¹ | 0.000259 ± 6.7e-05 s⁻¹ | 0.000758 ± 0.00014 s⁻¹ | 0.000737 ± 0.0001 s⁻¹ |
| U55A C70A | 0.00013 ± 1.3e-05 s⁻¹ | 116 ± 52 µM | 2.79e-05 ± 1.1e-05 s⁻¹ | 8.57e-05 ± 2e-05 s⁻¹ | 0.00011 ± 2.1e-05 s⁻¹ | 0.000155 ± 2.2e-05 s⁻¹ | 0.000114 ± 1.4e-05 s⁻¹ |
| A53U G66U | 0.00118 ± 0.00016 s⁻¹ | 2320 ± 590 µM | – | 6.64e-05 ± 1.7e-05 s⁻¹ | 0.000307 ± 7.4e-05 s⁻¹ | 0.000716 ± 0.00012 s⁻¹ | 0.000904 ± 0.00012 s⁻¹ |
| U57A G66U | 2.06e-05 ± 1.5e-06 s⁻¹ | – | < 1e-05 s⁻¹ | – | – | – | – |
| U56A A64U | 5.11e-05 ± 2e-06 s⁻¹ | 1250 ± 250 µM | – | – | – | 3.54e-05 ± 1.6e-05 s⁻¹ | 4.52e-05 ± 1e-05 s⁻¹ |
| U56A A64C | 6.42e-05 ± 1e-05 s⁻¹ | – | < 1e-05 s⁻¹ | – | – | 6.08e-05 ± 1.1e-05 s⁻¹ | 5.71e-05 ± 9.1e-06 s⁻¹ |
| A53C U54A | 0.00804 ± 0.0035 s⁻¹ | – | 0.000184 ± 2.3e-05 s⁻¹ | 0.000353 ± 9.2e-05 s⁻¹ | 0.00128 ± 0.00018 s⁻¹ | 0.00277 ± 0.00065 s⁻¹ | 0.00747 ± 0.00098 s⁻¹ |
| U56A C67G | 0.00221 ± 0.00081 s⁻¹ | 1310 ± 590 µM | 6.73e-05 ± 6.8e-06 s⁻¹ | 0.000246 ± 2.7e-05 s⁻¹ | 0.000684 ± 0.00015 s⁻¹ | 0.000905 ± 0.00024 s⁻¹ | 0.00313 ± 0.00047 s⁻¹ |
| A53G U57G | 5.45e-05 ± 1.2e-06 s⁻¹ | 1880 ± 180 µM | – | – | – | 3.07e-05 ± 1.4e-05 s⁻¹ | 4.6e-05 ± 8.2e-06 s⁻¹ |
| U57C U65A | 1.91e-05 ± 3.6e-07 s⁻¹ | 1410 ± 140 µM | < 1e-05 s⁻¹ | – | – | – | – |
| U57C U65G | 3.4e-05 ± 3.5e-06 s⁻¹ | – | – | – | – | 3.03e-05 ± 1.3e-05 s⁻¹ | 3.07e-05 ± 1.1e-05 s⁻¹ |
| U54C U65G | 0.00585 ± 0.0014 s⁻¹ | 5410 ± 1800 µM | 5.43e-05 ± 8.6e-06 s⁻¹ | 0.000122 ± 2.6e-05 s⁻¹ | 0.000671 ± 0.00011 s⁻¹ | 0.00207 ± 0.00032 s⁻¹ | 0.00371 ± 0.00042 s⁻¹ |
| A53U U57G | 0.000158 ± 2.7e-05 s⁻¹ | 4010 ± 1600 µM | – | – | 3.61e-05 ± 1.4e-05 s⁻¹ | 5.56e-05 ± 1e-05 s⁻¹ | 0.000115 ± 1.4e-05 s⁻¹ |
| A53C U65A | 0.000359 ± 3.3e-05 s⁻¹ | 1720 ± 320 µM | – | 3.15e-05 ± 1e-05 s⁻¹ | 9.23e-05 ± 1.4e-05 s⁻¹ | 0.00025 ± 3.8e-05 s⁻¹ | 0.000294 ± 3.7e-05 s⁻¹ |
| U54G U69A | 0.000109 ± 1.4e-05 s⁻¹ | – | 5.13e-05 ± 1.4e-05 s⁻¹ | – | 0.000146 ± 3e-05 s⁻¹ | 9.9e-05 ± 1.8e-05 s⁻¹ | 0.000103 ± 1.9e-05 s⁻¹ |
| A53C U56G | 0.00299 ± 0.00066 s⁻¹ | 1830 ± 570 µM | 7.77e-05 ± 1.1e-05 s⁻¹ | 0.000166 ± 4.2e-05 s⁻¹ | 0.000851 ± 0.00012 s⁻¹ | 0.00165 ± 0.00035 s⁻¹ | 0.00254 ± 0.00039 s⁻¹ |
| U54G C61G | 1.78e-05 ± 5.8e-06 s⁻¹ | – | < 1e-05 s⁻¹ | – | – | – | – |
| U54G C61U | 2.79e-05 ± 5.8e-06 s⁻¹ | – | – | – | – | 3.11e-05 ± 1.3e-05 s⁻¹ | 2.39e-05 ± 1e-05 s⁻¹ |
| A53G U69G | 6.03e-05 ± 8.2e-06 s⁻¹ | – | 5.96e-05 ± 1e-05 s⁻¹ | 0.000101 ± 1.8e-05 s⁻¹ | 6.89e-05 ± 1.2e-05 s⁻¹ | 5.73e-05 ± 9.6e-06 s⁻¹ | 5.13e-05 ± 8e-06 s⁻¹ |
| U56G C58A | 0.000993 ± 0.00023 s⁻¹ | 6930 ± 2300 µM | – | – | 7.48e-05 ± 1.1e-05 s⁻¹ | 0.000312 ± 3.6e-05 s⁻¹ | 0.000556 ± 7.1e-05 s⁻¹ |
| U57C A64G | 0.000236 ± 3.1e-06 s⁻¹ | 3140 ± 87 µM | – | – | 3.93e-05 ± 7.8e-06 s⁻¹ | 0.000106 ± 1.3e-05 s⁻¹ | 0.000179 ± 1.7e-05 s⁻¹ |
| A53U A64G | 0.0234 ± 0.0024 s⁻¹ | 1970 ± 260 µM | 0.000491 ± 6.1e-05 s⁻¹ | 0.00148 ± 0.00041 s⁻¹ | 0.00551 ± 0.0013 s⁻¹ | 0.0138 ± 0.0041 s⁻¹ | 0.0195 ± 0.0038 s⁻¹ |
